Literature values in paper PMC7228847.

Molecular target: SEMA6A ECD (Mus musculus) (UniProt O35464)
Sequence (O35464 19-649): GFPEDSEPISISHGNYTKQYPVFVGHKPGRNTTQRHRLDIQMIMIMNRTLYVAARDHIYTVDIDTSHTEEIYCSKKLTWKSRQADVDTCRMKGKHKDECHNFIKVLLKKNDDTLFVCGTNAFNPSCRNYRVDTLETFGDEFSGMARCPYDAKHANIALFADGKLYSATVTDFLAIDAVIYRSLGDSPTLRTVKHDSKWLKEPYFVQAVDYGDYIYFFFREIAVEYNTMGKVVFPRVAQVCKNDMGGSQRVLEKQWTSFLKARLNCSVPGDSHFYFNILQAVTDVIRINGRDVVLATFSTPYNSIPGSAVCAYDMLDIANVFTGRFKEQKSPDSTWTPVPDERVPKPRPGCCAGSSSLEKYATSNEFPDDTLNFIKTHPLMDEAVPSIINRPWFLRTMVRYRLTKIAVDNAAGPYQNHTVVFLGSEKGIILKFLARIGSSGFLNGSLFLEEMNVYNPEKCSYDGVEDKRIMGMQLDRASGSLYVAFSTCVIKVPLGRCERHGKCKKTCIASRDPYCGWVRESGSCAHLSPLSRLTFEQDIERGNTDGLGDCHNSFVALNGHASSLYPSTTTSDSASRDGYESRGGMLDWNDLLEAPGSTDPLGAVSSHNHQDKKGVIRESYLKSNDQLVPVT

PlexinA2, sequence (P70207 35-1237): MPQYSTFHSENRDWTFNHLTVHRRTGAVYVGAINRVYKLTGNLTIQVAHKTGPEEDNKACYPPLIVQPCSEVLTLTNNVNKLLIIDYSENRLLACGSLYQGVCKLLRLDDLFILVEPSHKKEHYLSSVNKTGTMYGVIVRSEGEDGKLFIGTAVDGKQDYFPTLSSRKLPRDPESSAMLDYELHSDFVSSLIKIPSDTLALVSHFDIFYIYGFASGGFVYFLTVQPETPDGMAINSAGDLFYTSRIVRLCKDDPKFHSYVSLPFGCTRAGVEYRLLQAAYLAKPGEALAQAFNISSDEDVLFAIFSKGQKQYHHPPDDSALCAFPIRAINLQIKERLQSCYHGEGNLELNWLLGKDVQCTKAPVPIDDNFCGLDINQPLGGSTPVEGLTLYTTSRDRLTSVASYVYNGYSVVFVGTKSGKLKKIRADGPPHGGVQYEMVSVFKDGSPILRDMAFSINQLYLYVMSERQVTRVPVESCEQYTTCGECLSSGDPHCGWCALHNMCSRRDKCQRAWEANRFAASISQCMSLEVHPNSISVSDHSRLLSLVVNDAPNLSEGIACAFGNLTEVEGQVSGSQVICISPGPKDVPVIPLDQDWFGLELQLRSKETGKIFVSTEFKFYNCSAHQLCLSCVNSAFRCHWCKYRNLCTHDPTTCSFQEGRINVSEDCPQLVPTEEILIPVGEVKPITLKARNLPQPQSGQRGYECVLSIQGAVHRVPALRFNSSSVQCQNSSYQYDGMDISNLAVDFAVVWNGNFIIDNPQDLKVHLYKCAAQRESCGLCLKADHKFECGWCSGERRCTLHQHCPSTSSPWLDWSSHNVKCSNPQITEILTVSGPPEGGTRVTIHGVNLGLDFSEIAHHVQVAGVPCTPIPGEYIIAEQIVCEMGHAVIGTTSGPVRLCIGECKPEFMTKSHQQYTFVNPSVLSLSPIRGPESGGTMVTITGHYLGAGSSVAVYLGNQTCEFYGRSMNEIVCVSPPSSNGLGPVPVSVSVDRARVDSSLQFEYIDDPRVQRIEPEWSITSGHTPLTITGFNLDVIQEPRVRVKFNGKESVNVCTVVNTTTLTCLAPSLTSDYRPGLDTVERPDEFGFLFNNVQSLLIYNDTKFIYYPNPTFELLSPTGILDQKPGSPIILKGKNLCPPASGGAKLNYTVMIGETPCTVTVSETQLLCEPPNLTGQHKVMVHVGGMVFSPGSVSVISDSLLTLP

PlexinA2 (from UniProt P70207)
Kd: 2300 nM
